Experimental data published in paper PMC4626632, “The structure of Medicago truncatula δ^1-pyrroline-5-carboxylate reductase provides new insights into regulation of proline biosynthesis in plants” (Frontiers in Plant Science, 2015).

Experiments:
[1] = target: T1, δ^1-pyrroline-5-carboxylate reductase (MtP5CR) (Medicago truncatula, UniProt G7KRM5); assay: X-ray crystal structure of the cocrystallized complex ([…] Å); assay type: binding
T1 construct: gene MTR_7g090160; MtP5CR_1, His6-tag cleaved; homodecamer

[2] = target: T1, δ^1-pyrroline-5-carboxylate reductase (MtP5CR); assay: NAD(P)H oxidation assay at […] nm, kinetic analysis of inhibition; assay type: biochemical
[3] = substrate: NC(=O)C1=CN([C@@H]2O[C@H](COP(=O)(O)OP(=O)(O)OC[C@H]3O[C@@H](n4cnc5c(N)ncnc54)[C@H](O)[C@@H]3O)[C@@H](O)[C@H]2O)C=CC1; assay: purified protein; conditions: varied: cofactor
[4] = substrate: NC(=O)C1=CN([C@@H]2O[C@H](COP(=O)(O)OP(=O)(O)OC[C@H]3O[C@@H](n4cnc5c(N)ncnc54)[C@H](OP(=O)(O)O)[C@@H]3O)[C@@H](O)[C@H]2O)C=CC1; assay: purified protein; conditions: varied: cofactor
[5] = target: the molecule itself; assay: crystal structure; space group P1, one decamer in the asymmetric unit; 100 mM HEPES/MOPS pH 7.5, 10% PEG 4000, 20% glycerol, 30 mM MgCl2, 30 mM CaCl2, 19°C; unliganded and with NAD+, NADP+ or L-proline
[6] = substrate: O=C(O)C1CCC=N1; assay: steady-state kinetics of the purified enzyme, KM(app); assay type: biochemical, Medicago truncatula; conditions: NADPH C-terminal domain contains the P5C binding site

In the case of `NC(=O)c1ccc[n+]([C@@H]2O[C@H](COP(=O)([O-])OP(=O)(O)OC[C@H]3O[C@@H](n4cnc5c(N)ncnc54)[C@H](O)[C@@H]3O)[C@@H](O)[C@H]2O)c1` [NAD^+], the “X-ray crystal structure of the cocrystallized complex (1.85 Å)” value [1] is reported as “In the case of NAD^+ (Figure 8A), the adenine N1 atom interacts with Nδ of Asn65”.

`O=S(=O)(O)CCN1CCN(CCO)CC1` [HEPES, 2-[4-(2-hydroxyethyl)piperazin-1-yl]ethanesulfonic acid] was tested, and the Ki [2] was 1830 ± 80 µM.

B1: Medicago truncatula δ1-pyrroline-5-carboxylate reductase (enzyme, UniProt G7KRM5 1-274, looked up)
chain: MEIIPIPADSYTLGFIGAGKMAESIAKGAVRSGVLSPSRIKTAIHSNPARRTAFESIGITVLSSNDDVVRDSNVVVFSVKPQLLKDVVLKLKPLLTKDKLLVSVAAGIKMKDLQEWAGHERFIRVMPNTAATVGEAASVMSLGGAATEEDANLISQLFGSIGKIWKADDKYFDAITGLSGSGPAYIYLAIEALADGGVAAGLPRDLALSLASQTVLGAASMATQSGKHPGQLKDDVTSPGGTTIAGVHELEKAGFRGILMNAVVAAAKRSQELS
notes: P5C reductase (EC 1.5.1.2) of Medicago truncatula, isoform MtP5CR_1 (without the 29-residue insert of MtP5CR_2, A2Q2Y7); cDNA from leaf RNA; printed primers run from the ATG to the stop codon; monomer 28.5 kDa; Vector pMCSG68: His6 tag and TEV site at the N-terminus, cut off with TEV protease; Homodecamer (pentamer of dimers); also called MtP5CR; MtP5CR_1; source: E. coli BL21 Gold, purified …
B1 was tested, and the Km [3] was 468 ± 22 µM, the Vmax [3] was 92.4 ± 2.1 μkat (mg protein)^−1 and the kcat [3] was 2972 s⁻¹. The kcat/Km [3] was 6.35e+06 M⁻¹ s⁻¹, the Km [4] was 39 ± 3 µM and the Vmax [4] was 36.1 ± 0.7 μkat (mg protein)^−1. The kcat [4] was 1113 s⁻¹, the kcat/Km [4] was 2.85e+07 M⁻¹ s⁻¹ and the “stoichiometry N” value [5] was 10. For the same molecule, the Km [6] was 20 ± 2 µM.
